Assay results from US20140242080A1 (Hoffmann-La Roche, published 2014).

T1: cynomolgus MCSP D3 (cynomolgus, UniProt Q6UVK1 1582-2224 (human entry), limits assumed)
T1 construct: also called Cyno MCSP; cynomolgus homologue
T1 chain: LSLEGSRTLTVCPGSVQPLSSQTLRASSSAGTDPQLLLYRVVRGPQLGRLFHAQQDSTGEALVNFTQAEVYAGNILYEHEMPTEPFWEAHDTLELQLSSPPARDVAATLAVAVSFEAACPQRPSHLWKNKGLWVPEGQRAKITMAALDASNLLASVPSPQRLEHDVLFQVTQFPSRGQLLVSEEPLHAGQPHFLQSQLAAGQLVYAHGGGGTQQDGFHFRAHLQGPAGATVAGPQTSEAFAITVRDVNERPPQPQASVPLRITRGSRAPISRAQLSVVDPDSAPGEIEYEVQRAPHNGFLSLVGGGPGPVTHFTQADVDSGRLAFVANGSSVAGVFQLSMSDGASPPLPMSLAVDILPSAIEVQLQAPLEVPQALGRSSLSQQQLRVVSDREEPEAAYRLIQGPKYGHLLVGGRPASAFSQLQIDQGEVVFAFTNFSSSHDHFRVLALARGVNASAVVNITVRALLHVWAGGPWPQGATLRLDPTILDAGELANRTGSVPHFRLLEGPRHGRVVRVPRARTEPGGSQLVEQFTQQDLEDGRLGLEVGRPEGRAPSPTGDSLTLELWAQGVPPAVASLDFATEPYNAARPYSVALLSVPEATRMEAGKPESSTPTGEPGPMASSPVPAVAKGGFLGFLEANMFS

T2: hu-MCSP(D3 domain)-avi-his (human, UniProt Q6UVK1 1582-2224)
T2 construct: Recombinant D3 domain with avi and his tags; also called human MCSP(D3 domain)-avi-his; Human MCSP D3
T2 sequence: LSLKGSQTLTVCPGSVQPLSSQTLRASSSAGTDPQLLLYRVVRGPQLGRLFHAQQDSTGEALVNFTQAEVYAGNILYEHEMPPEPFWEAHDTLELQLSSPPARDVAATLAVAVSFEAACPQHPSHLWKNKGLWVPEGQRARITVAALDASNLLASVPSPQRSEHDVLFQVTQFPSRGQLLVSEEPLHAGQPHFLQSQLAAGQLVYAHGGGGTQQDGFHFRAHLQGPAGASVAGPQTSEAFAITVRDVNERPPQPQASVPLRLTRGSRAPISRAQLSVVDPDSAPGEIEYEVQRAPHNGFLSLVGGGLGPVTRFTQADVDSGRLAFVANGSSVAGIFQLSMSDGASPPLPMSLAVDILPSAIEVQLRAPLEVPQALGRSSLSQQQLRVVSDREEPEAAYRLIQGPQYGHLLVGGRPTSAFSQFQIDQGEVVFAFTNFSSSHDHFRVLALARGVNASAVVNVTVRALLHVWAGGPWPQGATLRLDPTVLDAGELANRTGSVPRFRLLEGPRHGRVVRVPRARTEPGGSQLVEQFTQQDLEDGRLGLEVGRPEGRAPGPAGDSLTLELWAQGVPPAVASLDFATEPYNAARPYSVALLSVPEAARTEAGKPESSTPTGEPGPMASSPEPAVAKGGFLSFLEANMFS


What was measured:
[1] = molecular target: T3, human CD3 expressed on Jurkat cells (human, UniProt P07766 23-207); assay: flow cytometry on Jurkat cells
T3 construct: CD3 complex on Jurkat T cells; also called CD3 on Jurkat cells; huCD3
Protocol: (§1) Binding of the different bispecific constructs to CD3 on Jurkat cells (ATCC #TIB-152), and the respective tumor antigen on target cells, was determined by FACS. Briefly, cells were harvested, counted and checked for viability. 0.15-0.2 million cells per well (in PBS containing 0.1% BSA; 90 μl) were plated in a round-bottom 96-well plate and incubated with the indicated concentration of the bispecific constructs and corresponding IgG controls (10 μl) for 30 min at 4° C. […] After the incubation, cells were centrifuged (5 min, 350×g), washed with 150 μl PBS containing 0.1% BSA, resuspended and incubated for further 30 min at 4° C. with 12 μl/well of a FITC- or PE-conjugated secondary antibody. Bound constructs were detected using a FACSCantoII (Software FACS Diva). The “(scFv)₂” molecule was detected using a FITC-conjugated anti-His antibody (Lucerna, #RHIS-45F-Z). For all other molecules, a FITC- or PE-conjugated AffiniPure F(ab′)2 Fragment goat anti-human IgG Fcγ Fragment Specific (Jackson Immuno Research Lab #109-096-098/working solution 1:20, or #109-116-170/working solution 1:80, respectively) was used. Cells were washed by addition of 120 μl/well PBS containing 0.1% BSA and centrifugation at 350×g for 5 min. A second washing step was performed with 150 μl/well PBS containing 0.1% BSA. […] EC50 values were calculated using the GraphPad Prism software.
As a control, the equivalent maximum concentration of the corresponding IgGs and the background staining due to the labeled 2ndary antibody (goat anti-human FITC-conjugated AffiniPure F(ab′)2 Fragment, FcγFragment-specific, Jackson Immuno Research Lab #109-096-098) were assessed as well.

[2] = molecular target: T4, human MCSP expressed on tumor cells (Colo-38, WM266-4, A375, MV-3, HCT-116) (human, UniProt Q6UVK1 30-2322); assay: flow cytometry on WM266-4 cells
T4 construct: whole, on cells; also called huMCSP; MCSP on cells
Protocol: as §1

[3] = molecular target: T4, human MCSP expressed on tumor cells …; assay: cell-based or functional assay
cynomolgus MCSP D3 [4] = molecular target: T1, cynomolgus MCSP D3; assay: ratio of ProteOn IgG KD, parent M4-3/ML2 against variant
[5] = molecular target: T2, hu-MCSP(D3 domain)-avi-his; assay: as above
cynomolgus MCSP D3 [6] = molecular target: T1, cynomolgus MCSP D3; assay: SPR ProteOn XPR36, 25 C; IgG captured via anti-human F(ab')2, MCSP D3 as analyte
[7] = molecular target: T2, hu-MCSP(D3 domain)-avi-his; assay: as above
cynomolgus MCSP D3 [8] = molecular target: T1, cynomolgus MCSP D3; assay: SPR Biacore T200, 25 C; avidity: MCSP D3 captured via anti-Penta His, IgG as analyte
Protocol: (§2) For analyzing the avidity of the interaction of different anti-MCSP IgGs to human and cynomolgus MCSP D3 direct coupling of around 9,500 resonance units (RU) of the anti-Penta His antibody (Qiagen) was performed on a CM5 chip at pH 5.0 using the standard amine coupling kit (Biacore, Freiburg/Germany). Antigens were captured for 60 s at 30 nM with 10 μl/min respectively. IgGs were passed at a concentration of 0.0064-100 nM with a flowrate of 30 μl/min through the flow cells over 280 s. The dissociation was monitored for 180 s. Bulk refractive index differences were corrected for by subtracting the response obtained on reference flow cell. […] For affinity measurements IgGs were captured on a CM5 sensorchip surface with immobilized anti human Fc. Capture IgG was coupled to the sensorchip surface by direct immobilization of around 9,500 resonance units (RU) at pH 5.0 using the standard amine coupling kit (Biacore, Freiburg/Germany). IgGs are captured for 25 s at 10 nM with 30 μl/min. Human and cynomolgus MCSP D3 were passed at a concentration of 2-500 nM with a flowrate of 30 μl/min through the flow cells over 120 s. The dissociation was monitored for 60 s. […] Bulk refractive index differences were corrected for by subtracting the response obtained on reference flow cell.

[9] = molecular target: T2, hu-MCSP(D3 domain)-avi-his; assay: as above
Protocol: as §2

cynomolgus MCSP D3 [10] = molecular target: T1, cynomolgus MCSP D3; assay: SPR Biacore T200, 25 C; affinity: IgG captured via anti-human Fc, MCSP D3 as analyte
Protocol: as §2

[11] = molecular target: T2, hu-MCSP(D3 domain)-avi-his; assay: as above
Protocol: as §2

T4 sequence (Q6UVK1 30-2322): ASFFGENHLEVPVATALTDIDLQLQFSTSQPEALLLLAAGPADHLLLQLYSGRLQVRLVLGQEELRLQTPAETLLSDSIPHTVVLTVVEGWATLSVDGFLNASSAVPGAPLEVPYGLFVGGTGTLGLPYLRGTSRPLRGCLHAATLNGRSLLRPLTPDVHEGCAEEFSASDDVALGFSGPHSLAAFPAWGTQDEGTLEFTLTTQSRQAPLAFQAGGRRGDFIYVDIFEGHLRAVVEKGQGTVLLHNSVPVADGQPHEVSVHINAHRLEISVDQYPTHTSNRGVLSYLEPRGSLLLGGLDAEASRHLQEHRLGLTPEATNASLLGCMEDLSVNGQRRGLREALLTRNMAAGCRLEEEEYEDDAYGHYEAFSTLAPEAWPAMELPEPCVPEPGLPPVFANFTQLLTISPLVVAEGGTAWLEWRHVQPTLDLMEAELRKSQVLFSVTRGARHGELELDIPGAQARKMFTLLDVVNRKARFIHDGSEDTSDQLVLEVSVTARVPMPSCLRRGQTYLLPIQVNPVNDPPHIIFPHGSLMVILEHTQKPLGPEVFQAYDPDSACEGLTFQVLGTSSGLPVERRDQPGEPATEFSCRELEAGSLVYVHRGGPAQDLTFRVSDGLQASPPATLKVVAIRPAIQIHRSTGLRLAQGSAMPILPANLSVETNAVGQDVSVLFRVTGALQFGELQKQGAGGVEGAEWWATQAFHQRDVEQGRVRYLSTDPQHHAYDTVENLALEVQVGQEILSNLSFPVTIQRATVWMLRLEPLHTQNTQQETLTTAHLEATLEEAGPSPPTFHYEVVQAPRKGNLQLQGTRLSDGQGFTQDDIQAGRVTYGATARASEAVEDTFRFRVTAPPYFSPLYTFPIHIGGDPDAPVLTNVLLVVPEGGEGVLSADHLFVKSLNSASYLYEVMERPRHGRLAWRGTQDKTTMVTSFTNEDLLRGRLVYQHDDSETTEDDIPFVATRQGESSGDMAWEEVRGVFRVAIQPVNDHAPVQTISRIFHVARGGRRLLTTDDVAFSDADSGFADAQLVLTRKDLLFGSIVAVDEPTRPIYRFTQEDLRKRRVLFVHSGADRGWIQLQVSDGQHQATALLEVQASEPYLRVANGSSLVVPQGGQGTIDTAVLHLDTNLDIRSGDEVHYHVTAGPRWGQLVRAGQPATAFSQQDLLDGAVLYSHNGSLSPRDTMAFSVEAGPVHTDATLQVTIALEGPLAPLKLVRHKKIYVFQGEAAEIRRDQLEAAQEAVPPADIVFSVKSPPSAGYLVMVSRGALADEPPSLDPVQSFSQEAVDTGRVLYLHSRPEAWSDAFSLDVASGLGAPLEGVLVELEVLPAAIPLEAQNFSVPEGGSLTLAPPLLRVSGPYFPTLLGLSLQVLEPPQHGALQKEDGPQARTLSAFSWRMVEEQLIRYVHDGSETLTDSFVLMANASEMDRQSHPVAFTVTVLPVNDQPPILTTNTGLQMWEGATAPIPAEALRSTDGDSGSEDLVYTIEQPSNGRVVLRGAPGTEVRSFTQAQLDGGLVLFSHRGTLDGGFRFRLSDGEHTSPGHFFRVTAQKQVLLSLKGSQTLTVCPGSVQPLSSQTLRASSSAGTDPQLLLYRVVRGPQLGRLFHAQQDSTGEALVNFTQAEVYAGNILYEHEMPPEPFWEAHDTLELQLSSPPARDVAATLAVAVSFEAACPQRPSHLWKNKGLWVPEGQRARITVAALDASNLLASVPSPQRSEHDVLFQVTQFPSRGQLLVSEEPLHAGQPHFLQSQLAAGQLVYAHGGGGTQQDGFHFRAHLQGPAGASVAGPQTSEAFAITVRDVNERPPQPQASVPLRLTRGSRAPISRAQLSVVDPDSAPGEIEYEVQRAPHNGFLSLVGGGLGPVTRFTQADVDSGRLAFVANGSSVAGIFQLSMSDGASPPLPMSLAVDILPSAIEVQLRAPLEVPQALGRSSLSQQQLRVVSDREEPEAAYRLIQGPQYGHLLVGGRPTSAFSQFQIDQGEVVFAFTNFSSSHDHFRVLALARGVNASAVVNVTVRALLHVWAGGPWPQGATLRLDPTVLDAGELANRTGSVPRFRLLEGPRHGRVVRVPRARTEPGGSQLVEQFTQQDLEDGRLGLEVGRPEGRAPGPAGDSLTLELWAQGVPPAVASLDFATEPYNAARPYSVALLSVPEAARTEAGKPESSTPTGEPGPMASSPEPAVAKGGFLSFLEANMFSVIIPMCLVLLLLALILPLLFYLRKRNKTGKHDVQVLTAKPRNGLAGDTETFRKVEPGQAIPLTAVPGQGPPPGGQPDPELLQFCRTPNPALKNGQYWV
T3 sequence (P07766 23-207 limits assumed): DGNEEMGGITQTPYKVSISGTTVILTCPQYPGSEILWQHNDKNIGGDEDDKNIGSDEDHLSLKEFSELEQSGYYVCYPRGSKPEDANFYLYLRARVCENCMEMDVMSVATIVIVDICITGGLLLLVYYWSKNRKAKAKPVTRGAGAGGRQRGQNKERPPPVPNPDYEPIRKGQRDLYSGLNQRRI

| Binder | EC50 [1] [nM] | EC50 [2] [nM] | EC50 [pM] of T cell-mediated killing (LDH release), MV-3 cells, human PBMCs E:T 10:1, about 24 h [3] [pM] | EC50 [pM] of T cell-mediated killing (LDH release), WM266-4 cells, human PBMCs E:T 10:1, about 24 h [3] [pM] | Fold increase over parent (cynomolgus MCSP D3 [4]) [fold] | Fold increase over parent [5] [fold] | Kd (cynomolgus MCSP D3 [6]) [nM] | Kd [7] [nM] | Kd (cynomolgus MCSP D3 [8]) [nM] | Kd [9] [nM] | Kd (cynomolgus MCSP D3 [10]) [nM] | Kd [11] [nM] |
| --- | --- | --- | --- | --- | --- | --- | --- | --- | --- | --- | --- | --- |
| 2 + 1 IgG Crossfab, inverted; CL/CH1 exchange (LC007/V9) (anti-MCSP/anti-huCD3) (bispecific antibody, also called 2+1 IgG Crossfab, inverted (V9)) chain 1: DIVLTQSPSSLSASLGDRVTISCSASQGIRNYLNWYQQRPDGTVKLLIYYTSSLHSGVPSRFSGSGSGTDYSLTISNLEPEDIATYYCQQYSKLPWTFGGGTKLEIKRTVAAPSVFIFPPSDEQLKSGTASVVCLLNNFYPREAKVQWKVDNALQSGNSQESVTEQDSKDSTYSLSSTLTLSKADYEKHKVYACEVTHQGLSSPVTKSFNRGEC chain 2: EVQLQESGPGLVKPSQSLSLTCSVTGYSITSGYYWNWIRQFPGNKLEWMGYITYDGSNNYNPSLKNRISITRDTSKNQFFLKLNSVTTEDTATYYCADFDYWGQGTTLTVSSASTKGPSVFPLAPSSKSTSGGTAALGCLVKDYFPEPVTVSWNSGALTSGVHTFPAVLQSSGLYSLSSVVTVPSSSLGTQTYICNVNHKPSNTKVDKKVEPKSCDKTHTCPPCPAPEAAGGPSVFLFPPKPKDTLMISRTPEVTCVVVDVSHEDPEVKFNWYVDGVEVHNAKTKPREEQYNSTYRVVSVLTVLHQDWLNGKEYKCKVSNKALGAPIEKTISKAKGQPREPQVCTLPPSRDELTKNQVSLSCAVKGFYPSDIAVEWESNGQPENNYKTTPPVLDSDGSFFLVSKLTVDKSRWQQGNVFSCSVMHEALHNHYTQKSLSLSPGK chain 3: DIQMTQSPSSLSASVGDRVTITCRASQDIRNYLNWYQQKPGKAPKLLIYYTSRLESGVPSRFSGSGSGTDYTLTISSLQPEDFATYYCQQGNTLPWTFGQGTKVEIKSSASTKGPSVFPLAPSSKSTSGGTAALGCLVKDYFPEPVTVSWNSGALTSGVHTFPAVLQSSGLYSLSSVVTVPSSSLGTQTYICNVNHKPSNTKVDKKVEPKSC chain 4: not shown | 6.1 | 0.57 | 4.1 | 3.7 | – | – | – | – | – | – | – | – |
| 2 + 1 IgG Crossfab; CL/CH1 exchange (LC007/anti-CD3) (anti-MCSP/anti-huCD3) (bispecific antibody, also called 2+1 IgG Crossfab (anti-CD3)) chain 1: DIVLTQSPSSLSASLGDRVTISCSASQGIRNYLNWYQQRPDGTVKLLIYYTSSLHSGVPSRFSGSGSGTDYSLTISNLEPEDIATYYCQQYSKLPWTFGGGTKLEIKRTVAAPSVFIFPPSDEQLKSGTASVVCLLNNFYPREAKVQWKVDNALQSGNSQESVTEQDSKDSTYSLSSTLTLSKADYEKHKVYACEVTHQGLSSPVTKSFNRGEC chain 2: EVQLQESGPGLVKPSQSLSLTCSVTGYSITSGYYWNWIRQFPGNKLEWMGYITYDGSNNYNPSLKNRISITRDTSKNQFFLKLNSVTTEDTATYYCADFDYWGQGTTLTVSSASTKGPSVFPLAPSSKSTSGGTAALGCLVKDYFPEPVTVSWNSGALTSGVHTFPAVLQSSGLYSLSSVVTVPSSSLGTQTYICNVNHKPSNTKVDKKVEPKSCDKTHTCPPCPAPEAAGGPSVFLFPPKPKDTLMISRTPEVTCVVVDVSHEDPEVKFNWYVDGVEVHNAKTKPREEQYNSTYRVVSVLTVLHQDWLNGKEYKCKVSNKALGAPIEKTISKAKGQPREPQVCTLPPSRDELTKNQVSLSCAVKGFYPSDIAVEWESNGQPENNYKTTPPVLDSDGSFFLVSKLTVDKSRWQQGNVFSCSVMHEALHNHYTQKSLSLSPGK chain 3: QAVVTQESALTTSPGETVTLTCRSSTGAVTTSNYANWVQEKPDHLFTGLIGGTNKRAPGVPARFSGSLIGDKAALTITGAQTEDEAIYFCALWYSNLWVFGGGTKLTVLSSASTKGPSVFPLAPSSKSTSGGTAALGCLVKDYFPEPVTVSWNSGALTSGVHTFPAVLQSSGLYSLSSVVTVPSSSLGTQTYICNVNHKPSNTKVDKKVEPKSC chain 4: not shown | 10.3 | 3.1 | 11 | 11.3 | – | – | – | – | – | – | – | – |
| M4-3(C1)/ML2(G3) IgG (antibody, V domains shown, Human IgG1) VH: QVQLQESGPGLVKPSQTLSLTCTVSGGSITSGYYWNWIRQHPGKGLEWIGYITFDGSNNYNPSLKSRVTISRDTSKNQFSLKLSSVTAADTAVYYCADFDYWGQGTLVTVSS VL: DIQMTQSPSSLSASVGDRVTITCRASQGIRNYLNWYQQKPGKAPKLLIYYTSSLHSGVPSRFSGSGSGTDYTLTISSLQPEDFATYYCQQYSALPWTFGQGTKVEIKR | – | – | – | – | 10 | 28.6 | 0.2 | 0.07 | 0.0038 | 0.0045 | 1.4 | 1.8 |
